Results reported in US11304964B2, “Bolaamphiphilic compounds, compositions and uses thereof” (priority 2012, dated 2022).

Experiments:
[1] = Tenofovir encapsulation in bolaamphiphile vesicles (UV absorbance after Sephadex G50 separation); format: physicochemical; conditions: vesicles with vs without SA, Sephadex G50, absorbance at 260 nm
Protocol: Bolaamphiphiles, cholesterol, and CHMES (2:1:1 mole ratio) are dissolved in chloroform or a suitable solvent. […] The solvents are evaporated under vacuum and the resultant thin films are hydrated in 0.2 mg/mL CF solution in PBS and probe-sonicated (Vibra-Cell VCX130 sonicator, Sonics and Materials Inc., Newtown, Conn., USA) with amplitude 20%, pulse on: 15 sec, pulse off: 10 sec to achieve homogenous vesicle dispersions. Vesicle size and zeta potential were determined using a Zetasizer Nano ZS (Malvern Instruments, UK).
Methods were established to determine quantitatively the amount of the encapsulated tenofovir based on a UV absorption and determined the percent of tenofovir encapsulation by various vesicle formulations (data not shown). […] One objective of this work was to achieve the maximum amount of tenofovir encapsulated per vesicle along with a minimum loss of the non-encapsulated drug. Accordingly, several parameters were examined, such as varying the ratio among the vesicle components, changing the ratio of tenofovir to bolaamphiphiles, varying the pH of the hydration solution and also adding to the formulation additional additives, in the attempt to increase the encapsulation capacity of the vesicles.
In particular, in order to maximize tenofovir encapsulation the following parameters were studied: (1) tenofovir to GLH ratio; (2) adjusting the concentrations of cholestyrl hemisuccinate (CHEM) and cholesterol (CHOL), components that are used in the vesicle formulation, (3) examining several buffers and pHs in the encapsulation process, (4) time of sonication, and (5) tenofovir concentration, and (6) addition of stearyl amine to the vesicle formulation to enhance encapsulation by complexation with tenofovir.
The vesicles were prepared from formulations with and without SA and the non-encapsulated tenofovir (free tenofovir) was separated from the encapsulated tenofovir on Sephadex G50 column and the absorbance at 260 nm of each fraction collected from the column was read.

[2] = Fluorescence in cerebral cortex after i.v. injection of albumin-FITC; format: in vivo; conditions: mouse cerebral cortex fluorescence
Text: FIG. 5A: Fluorescence in mouse cerebral cortex after i.v. injection of albumin-FITC (non-encapsulated) FIG. 5B: Fluorescence in mouse cerebral cortex after i.v. injection of albumin-FITC encapsulated in GLH-20 vesicles.

Row | Compound | effect of stearyl amine on tenofovir encapsulation [1] | delivery to the brain ([2]; encapsulated in GLH-20 vesicles) | brain accumulation ([2]; un-encapsulated)
1 | CCCCCCCCCCCCCCCCCCN [SA, stearyl amine] | increase tenofovir encapsulation |  | 
2 | Albumin-FITC: FITC-labelled protein albumin |  | delivered successfully to the brain | little, if any, brain accumulation
